In patent US20060127393A1 (Amgen, published 2006):

Assays:
[1] = target: rat Dkk-1 (rat); experiment: cell-based or functional assay
[2] = target: T1, murine Dkk-1 (mouse, UniProt O54908 32-272); experiment: cell-based or functional assay
T1 sequence: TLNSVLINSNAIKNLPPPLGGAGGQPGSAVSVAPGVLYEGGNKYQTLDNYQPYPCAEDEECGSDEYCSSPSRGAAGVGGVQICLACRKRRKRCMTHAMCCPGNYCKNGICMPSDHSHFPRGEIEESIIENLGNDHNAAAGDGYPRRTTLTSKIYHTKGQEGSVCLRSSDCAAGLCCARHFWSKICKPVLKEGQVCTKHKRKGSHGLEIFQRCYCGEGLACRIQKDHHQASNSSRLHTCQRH

[3] = target: T2, human Dkk-1 (human, UniProt O94907 32-266, carbohydrate moieties attached to Asn256); experiment: cell-based or functional assay
T2 sequence: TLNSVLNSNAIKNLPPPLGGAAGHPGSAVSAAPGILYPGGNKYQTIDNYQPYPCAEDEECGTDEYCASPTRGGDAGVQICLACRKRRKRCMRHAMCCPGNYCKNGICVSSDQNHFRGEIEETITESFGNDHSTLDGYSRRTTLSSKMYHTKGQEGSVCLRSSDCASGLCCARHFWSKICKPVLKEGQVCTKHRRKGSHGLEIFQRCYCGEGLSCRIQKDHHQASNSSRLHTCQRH

[4] = target: T3, CNBr2 fragment of human Dkk-1 (human, UniProt O94907 32-122; O94907 127-178); experiment: BiaCore
T3 construct: Two peptides held together by disulfide bonds; represents disulfide domain 1
T3 sequence 1: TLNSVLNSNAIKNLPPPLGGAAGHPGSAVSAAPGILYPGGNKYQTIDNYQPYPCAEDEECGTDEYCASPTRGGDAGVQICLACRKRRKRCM
T3 sequence 2: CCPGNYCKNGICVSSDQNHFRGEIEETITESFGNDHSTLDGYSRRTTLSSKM
Protocol: To characterize this conformational epitope, a strategy was applied that involved fragmenting human Dkk-1 with cyanogen bromide (CNBr) and several different proteases, then testing the resulting fragments to see whether they could still bind to the 11H10 antibody. The resulting data permitted the location of the epitope to be determined. In brief, the peptide digests were incubated with or without the antibody, passed through a 10 K cut-off membrane to trap any peptides that had become bound to the antibody (˜150,000 Da), then subjected to HPLC peptide mapping. […] The individual HPLC peaks were collected and the peptides identified and mapped by N-terminal sequencing. To determine if the peptides could bind 11H10, they were subjected to real time biospecific interaction assays with a BiaCore work station, using Protein A-trapped anti-Dkk-1 antibody as a biosensor for binding.
CNBr cleavage of hDkk-1 generated two large fragments, CNBr1 and CNBr2. These represented, respectively, disulfide domain 2 and disulfide domain 1. […] CNBr2 similarly consisted of two peptides (amino acids 32-122 of SEQ ID NO:2 and amino acids 127-178 of SEQ ID NO:2), also held together by disulfide bonds. […] Thus, it was concluded that 11H10 binds to an epitope located in disulfide domain 2 of Dkk-1.

[5] = target: T1, murine Dkk-1; experiment: cell-based or functional assay; remark: listed apart in the source
[6] = target: T2, human Dkk-1; experiment: cell-based or functional assay; remark: listed apart in the source
[7] = target: rat Dkk-1 (rat); experiment: KinExA 3000 equilibrium binding in solution, Dkk-1-coated beads
Excerpt: (§1) It was apparent from the BiaCore results that 11H10 had the higher affinity for Dkk-1, and that its affinity for target exceeded the sensitivity limits of the BiaCore assay. Accordingly, the affinity of binding of 11H10 to Dkk-1 was further assessed by an equilibrium binding analysis using the more sensitive KinExA® 3000 (Sapidyne Instruments Inc., Boise, Id.). For these measurements, Reacti-Gel 6× beads (Pierce, Rockford, Ill.) were pre-coated with either mouse, rat or human Dkk-1 and blocked with BSA. One hundred pM, 300 pM, or 1000 pM of the 11H10 antibody was mixed with various concentrations of human, mouse or rat Dkk-1, ranging in concentration from 1 pM to 50 nM, and equilibrated at room temperature for 8 hours. The mixtures were then passed over the Dkk-1-coated beads. The amount of bead-bound anti-Dkk-1 antibody was quantified using goat anti-rat-IgG antibody labeled with a fluorescent tag (Cy5; Jackson Immuno Research, West Grove, Pa.). The amount of fluorescent signal measured was proportional to the concentration of free anti-Dkk-1 antibody in each reaction mixture at equilibrium. The dissociation equilibrium constant (Kd) was obtained from nonlinear regression of the competition curves using a dual-curve one-site homogeneous binding model using the KinExA software.

[8] = target: T1, murine Dkk-1; experiment: as above
Excerpt: as §1

[9] = target: T2, human Dkk-1; experiment: as above
Excerpt: as §1

[10] = target: rat Dkk-1 (rat); experiment: SPR, BiaCore 2000, Dkk-1 immobilized on CM5 chip, antibody injected
Protocol: (§2) Kinetic analyses were performed to study the binding of the 11H10 and 1F11 antibodies to Dkk-1 using BiaCore 2000 (BIACORE, Uppsala, Sweden). Rat Dkk-1 (260 μg/ml), murine Dkk-1 (690 μg/ml) and human Dkk-1(900 μg/ml) were immobilized on a CM5 chip surface, and various concentrations (0.78 nM to about 100 nM) of the antibodies were injected over the immobilized Dkk-1 surfaces. The binding sensorgrams were analyzed using BIAevaluation 3.2.

[11] = target: T1, murine Dkk-1; experiment: as above
Protocol: as §2

[12] = target: T2, human Dkk-1; experiment: as above
Protocol: as §2

B1: 11H10 monoclonal antibody (rat) (antibody, IgG1, V domains shown)
VH: EVQLVESGGGLVQPANSLKLSCAASGFTFSDYAMAWVRQSPKKGLEWVATIIYDGSSTYYRDSVKGRFTISRDNAKSTLYLQMDSLRSEDTATYYCATGLGIATDYFDYWGQGVLVTVSS
VL: DIRMTQSPASLSASLGETVNIECLASEDIYSDLAWYQQKPGKSPQLLIYNANSLQNGVPSRFSGSGSGTQYSLKINSLQSEDVATYFCQQYNNYPPTFGGGTKLELKR
notes: Rat hybridoma antibody of the IgG1 isotype; also called rat 11H10; L1H1
EC50 (nM), TCF-lef luciferase assay [1]: 5 nM
EC50 (nM), TCF-lef luciferase assay [2]: 11.5 nM
EC50 (nM), TCF-lef luciferase assay [3]: 4 nM
binding result [4]: no binding
EC50 (nM), restoring ALP activity in ST2 cells given Wnt3a and Dkk-1 [5]: 6.1 nM
EC50 (nM), restoring ALP activity in ST2 cells given Wnt3a and Dkk-1 [6]: 3.5 nM
Kd [7]: 0.54 nM
Kd [8]: 0.165 nM
Kd [9]: 0.13 nM
Kd [10]: 0.29 nM
koff [10]: 1.54e-05 s⁻¹
kon [10]: 54000 M⁻¹ s⁻¹
Kd [11]: < 0.1 nM
koff [11]: < 5e-05 s⁻¹
kon [11]: 54000 M⁻¹ s⁻¹
Kd [12]: < 0.1 nM
koff [12]: < 5e-05 s⁻¹
kon [12]: 52000 M⁻¹ s⁻¹
